Results reported in patent US20120329986A1 (UNIVERSITE DE MONTREAL, published 2012).
Square brackets hold non-standard residues; d marks the D form. Ends that are not written are not given here. dTrp(2-Me) = Cc1[nH]c2ccccc2c1C[C@@H](N)C(=O)O; HAIC = not defined here

Target: CD36 receptor (in the src-kinase cellular assay)
Experiment: cell-based or functional assay

In the case of [HAIC][dTrp(2-Me)][dK]W[dF]K-NH2 (reading uncertain) [EP80317], the “SRC-kinase cellular assay EC50” value is reported as 26 nM.
